Consider one molecule from patent US20220227853A1 (US Dept. of Health and Human Services, published 2022).

The experiment has as its target T1, full-length PfCSP on the surface of transgenic P. berghei sporozoites (Pb-PfCSP) (Plasmodium falciparum, UniProt Q7K740 19-374).
T1 construct: whole, on cells; also called Pb-PfCSP SPZ; Pb-PfCSP SPZ GFP/Luc
Briefly: flow cytometry on Pb-PfCSP sporozoites, mAb 20 µg/mL, MFI. (In general: Flow cytometry measures light scatter and fluorescence of single cells or particles in a stream.)

T1 sequence (Q7K740 19-374): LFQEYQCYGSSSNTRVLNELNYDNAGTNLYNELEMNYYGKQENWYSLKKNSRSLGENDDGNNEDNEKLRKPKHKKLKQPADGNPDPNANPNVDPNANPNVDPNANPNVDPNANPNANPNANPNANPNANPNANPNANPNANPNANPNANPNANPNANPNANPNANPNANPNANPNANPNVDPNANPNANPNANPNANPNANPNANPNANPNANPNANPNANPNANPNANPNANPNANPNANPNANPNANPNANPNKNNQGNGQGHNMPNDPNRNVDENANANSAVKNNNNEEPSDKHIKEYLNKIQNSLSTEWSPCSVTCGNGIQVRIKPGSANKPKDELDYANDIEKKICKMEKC

B1: CIS43 human monoclonal antibody (antibody, V domains shown)
VH: QVQLVQSGAEVKKPGASVKVSCKASGYTFTSYAIHWVRQAPGQRLEWMGWIKAGNGNTRYSQKFQDRVTITRDTSTTTAYMELSSLRSEDTAVYYCALLTVLTPDDAFDIWGQGTMVTVSS
VL: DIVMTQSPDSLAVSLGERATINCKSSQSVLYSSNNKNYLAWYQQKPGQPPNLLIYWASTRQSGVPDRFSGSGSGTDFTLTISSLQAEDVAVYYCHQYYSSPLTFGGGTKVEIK
notes: also called CIS43 IgG
For B1, the binding result is on record as “binds”.
